Measured values from patent publication US11278600B2, “Human alpha-galactosidase variants” (Codexis, Inc., priority 2014, dated 2022).

Tests used:
Type in all cases: biochemical
[1] = HTP-analysis of supernatants pretreated with acid (MUGal hydrolysis); conditions: challenge at pH 4.2; activity of the variant/activity of WT GLA (SEQ ID NO: 5); yeast supernatant
Method in brief: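 Yeast INVSc1 supernatant, GLA variants; acid challenge: McIlvaine pH 3.3-4.3, 37° C., 1-3 h. Assay: MUGal in McIlvaine pH 4.8 plus citrate pH 4.3, 37° C., 30-180 min, Na2CO3 stop, Ex 355/Em 448 nm.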

[2] = HTP-analysis of yeast culture supernatants, no challenge (MUGal hydrolysis); conditions: activity of the variant/activity of WT GLA (SEQ ID NO: 5), yeast supernatant
Method in brief: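 GLA variants expressed in yeast INVSc1, secreted into SD-Ura broth over 66-84 h at 30° C; clarified supernatants tested without challenge. Supernatant mixed with McIlvaine buffer pH 4.8 and 2 mM MUGal (citrate/KCl, pH 4.6), 37° C for 30-180 min, carbonate-quenched, fluorescence Ex 355/Em 448 nm.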

[3] = HTP-analysis of supernatants pretreated with base (MUGal hydrolysis); conditions: challenge at pH 7.1; activity of the variant/activity of WT GLA (SEQ ID NO: 5); yeast supernatant
Method in brief: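 GLA variants were secreted by transformed INVSc1 yeast grown 66-84 h at 30° C. Supernatants were exposed to neutral-to-basic buffers (pH 7.0-9.7) at 37° C for 1-18 h, then assayed with MUGal in acidic citrate/McIlvaine buffer, with fluorescence read after quenching.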

Row | Molecule | Relative Activity of GLA Variants After Challenge at pH 4.2 [1] | Relative Activity of GLA Variants After No Challenge (NC) [2] | Relative Activity of GLA Variants After Challenge at pH 7.1 [3]
1 | 86 (protein, Synthetic Polypeptide sequence of Variant No. 86 of mature Human GLA) LDNGLARTPTMGWLHWERFMCNLDCQEEPDSCISEKLFMEMAELMVSEGWKDAGYEYLCIDDCWMAPQRDSEGRLQADPQRFPHGIRQLANYVHSKGLKLGIYADVGNKTCAGFPGSFGYYDIDAQTFADWGVDLLKFDGCYCDSLENLADGYKHMSLALNRTGRSIVYSCEWPLYMWPFQKPNYTEIRQYCNHWRNFADIDDSWKSIKSILDWTSFNQERIVDVAGPGGWNDPDMLVIGNFGLSWNQQVTQMALWAIMAAPLFMSNDLRHISPQAKALLQDKDVIAINQDPLGKQGYQLRQGDNFEVWERPLSGLAWAVAMINRQEIGGPRSYTIAVASLGKGVACNPACFITQLLPVKRKLGFYEWTSRLRSHINPTGTVLLQLENTMQMSKPLLL | ++ (++ = >1.5 to 2.5 relative activity over WT GLA (SEQ ID NO: 5)) | ++ (++ = >1.5 to 2.5 relative activity over WT GLA (SEQ ID NO: 5)) | ++ (++ = >1.5 to 2.5 relative activity over WT GLA (SEQ ID NO: 5))
2 | 92 (protein, Synthetic Polypeptide sequence of Variant No. 92 of mature Human GLA) LDNGLARTPTMGWLHWERFMCNLDCQEEPDSCISEKLFMEMAELMVSEGWKDAGYEYLCIDDCWMAPQRDSEGRLQADPQRFPHGIRQLANYVHSRGLKLGIYADVGNKTCAGFPGSFGYYDIDAQTFADWGVDLLKFDGCYCDSLENLADGYKHMSLALNRTGRSIVYSCEWPLYMWPFQKPNYTEIRQYCNHWRNFADIDDSWKSIKSILDWTSFNQERIVDVAGPGGWNDPDMLVIGNFGLSWNQQVTQMALWAIMAAPLFMSNDLRHISPQAKALLQDKDVIAINQDPLGKQGYQLRQGDNFEVWERPLSGLAWAVAMINRQEIGGPRSYTIAVASLGKGVACNPACFITQLLPVKRKLGFYEWTSRLRSHINPTGTVLLQLENTMQMSKDLLL | + (+ = 0.5 to 1.5 relative activity over WT GLA (SEQ ID NO: 5)) | + (+ = 0.5 to 1.5 relative activity over WT GLA (SEQ ID NO: 5)) | + (+ = 0.5 to 1.5 relative activity over WT GLA (SEQ ID NO: 5))
3 | 90 (protein, Synthetic Polypeptide sequence of Variant No. 90 of mature Human GLA) LDNGLARTPTMGWLHWERFMCNLDCQEEPDSCISEKLFMEMAELMVSEGWKDAGYEYLCIDDCWMAPQRDSEGRLQADPQRFPHGIRQLANYVHSIGLKLGIYADVGNKTCAGFPGSFGYYDIDAQTFADWGVDLLKFDGCYCDSLENLADGYKHMSLALNRTGRSIVYSCEWPLYMWPFQKPNYTEIRQYCNHWRNFADIDDSWKSIKSILDWTSFNQERIVDVAGPGGWNDPDMLVIGNFGLSWNQQVTQMALWAIMAAPLFMSNDLRHISPQAKALLQDKDVIAINQDPLGKQGYQLRQGDNFEVWERPLSGLAWAVAMINRQEIGGPRSYTIAVASLGKGVACNPACFITQLLPVKRKLGFYEWTSRLRSHINPTGTVLLQLENTMQMSKDLLL | + (+ = 0.5 to 1.5 relative activity over WT GLA (SEQ ID NO: 5)) | + (+ = 0.5 to 1.5 relative activity over WT GLA (SEQ ID NO: 5)) | + (+ = 0.5 to 1.5 relative activity over WT GLA (SEQ ID NO: 5))
4 | 91 (protein, Synthetic Polypeptide sequence of Variant No. 91 of mature Human GLA) LDNGLARTPTMGWLHWERFMCNLDCQEEPDSCISEKLFMEMAELMVSEGWKDAGYEYLCIDDCWMAPQRDSEGRLQADPQRFPHGIRQLANYVHSLGLKLGIYADVGNKTCAGFPGSFGYYDIDAQTFADWGVDLLKFDGCYCDSLENLADGYKHMSLALNRTGRSIVYSCEWPLYMWPFQKPNYTEIRQYCNHWRNFADIDDSWKSIKSILDWTSFNQERIVDVAGPGGWNDPDMLVIGNFGLSWNQQVTQMALWAIMAAPLFMSNDLRHISPQAKALLQDKDVIAINQDPLGKQGYQLRQGDNFEVWERPLSGLAWAVAMINRQEIGGPRSYTIAVASLGKGVACNPACFITQLLPVKRKLGFYEWTSRLRSHINPTGTVLLQLENTMQMSKDLLL | + (+ = 0.5 to 1.5 relative activity over WT GLA (SEQ ID NO: 5)) | + (+ = 0.5 to 1.5 relative activity over WT GLA (SEQ ID NO: 5)) | ++ (++ = >1.5 to 2.5 relative activity over WT GLA (SEQ ID NO: 5))
5 | 89 (protein, Synthetic Polypeptide sequence of Variant No. 89 of mature Human GLA) LDNGLARTPTMGWLHWERFMCNLDCQEEPDSCISEKLFMEMAELMVSEGWKDAGYEYLCIDDCWMAPQRDSEGRLQADPQRFPHGIRQLANYVHSKGLKLGIYADVGNKTCAGFPGSFGYYDIDAQTFADWGVDLLKFDGCYCDSLENLADGYKHMSLALNRTGRSIVYSCEWPLYMWPFQKPNYTEIRQYCNHWRNFADIDDSWKSIKSILDWTSFNQERIVDVAGPGGWNDPDMLVIGNFGLSWNQQVTQMALWAIMAAPLFMSNDLRHISPQAKALLQDKDVIAINQDPLGKQGYQLRQGDNFEVWERPLSGLAWAVAMINRQEIGGPRSYTIAVASLGKGVACNPACFITQLLPVKRKLGFYEWTSRLRSHINPTGTVLLQLENTMQMSKTLLL | + (+ = 0.5 to 1.5 relative activity over WT GLA (SEQ ID NO: 5)) | ++ (++ = >1.5 to 2.5 relative activity over WT GLA (SEQ ID NO: 5)) | + (+ = 0.5 to 1.5 relative activity over WT GLA (SEQ ID NO: 5))
6 | 93 (protein, Synthetic Polypeptide sequence of Variant No. 93 of mature Human GLA) LDNGLARTPTMGWLHWERFMCNLDCQEEPDSCISEKLFMEMAELMVSEGWKDAGYEYLCIDDCWMAPQRDSEGRLQADPQRFPHGIRQLANYVHSRGLKLGIYADVGNKTCAGFPGSFGYYDIDAQTFADWGVDLLKFDGCYCDSLENLADGYKHMSLALNRTGRSIVYSCEWPLYMWPFQKPNYTEIRQYCNHWRNFADIDDSWKSIKSILDWTSFNQERIVDVAGPGGWNDPDMLVIGNFGLSWNQQVTQMALWAIMAAPLFMSNDLRHISPQAKALLQDKDVIAINQDPLGKQGYQLRQGDNFEVWERPLSGLAWAVAMINRQEIGGPRSYTIAVASLGKGVACNPACFITQLLPVKRKLGFYEWTSRLRSHINPTGTVLLQLENTMQMSKDLVL | +++ (+++ = >2.5 relative activity over WT GLA (SEQ ID NO: 5)) | ++ (++ = >1.5 to 2.5 relative activity over WT GLA (SEQ ID NO: 5)) | + (+ = 0.5 to 1.5 relative activity over WT GLA (SEQ ID NO: 5))
7 | 88 (protein, Synthetic Polypeptide sequence of Variant No. 88 of mature Human GLA) LDNGLARTPTMGWLHWERFMCNLDCQEEPDSCISEKLFMEMAELMVSEGWKDAGYEYLCIDDCWMAPQRDSEGRLQADPQRFPHGIRQLANYVHSKGLKLGIYADVGNKTCAGFPGSFGYYDIDAQTFADWGVDLLKFDGCYCDSLENLADGYKHMSLALNRTGRSIVYSCEWPLYMWPFQKPNYTEIRQYCNHWRNFADIDDSWKSIKSILDWTSFNQERIVDVAGPGGWNDPDMLVIGNFGLSWNQQVTQMALWAIMAAPLFMSNDLRHISPQAKALLQDKDVIAINQDPLGKQGYQLRQGDNFEVWERPLSGLAWAVAMINRQEIGGPRSYTIAVASLGKGVACNPACFITQLLPVKRKLGFYEWTSRLRSHINPTGTVLLQLENTMQMSKSLLL | ++ (++ = >1.5 to 2.5 relative activity over WT GLA (SEQ ID NO: 5)) | + (+ = 0.5 to 1.5 relative activity over WT GLA (SEQ ID NO: 5)) | + (+ = 0.5 to 1.5 relative activity over WT GLA (SEQ ID NO: 5))
8 | 87 (protein, Synthetic Polypeptide sequence of Variant No. 87 of mature Human GLA) LDNGLARTPTMGWLHWERFMCNLDCQEEPDSCISEKLFMEMAELMVSEGWKDAGYEYLCIDDCWMAPQRDSEGRLQADPQRFPHGIRQLANYVHSKGLKLGIYADVGNKTCAGFPGSFGYYDIDAQTFADWGVDLLKFDGCYCDSLENLADGYKHMSLALNRTGRSIVYSCEWPLYMWPFQKPNYTEIRQYCNHWRNFADIDDSWKSIKSILDWTSFNQERIVDVAGPGGWNDPDMLVIGNFGLSWNQQVTQMALWAIMAAPLFMSNDLRHISPQAKALLQDKDVIAINQDPLGKQGYQLRQGDNFEVWERPLSGLAWAVAMINRQEIGGPRSYTIAVASLGKGVACNPACFITQLLPVKRKLGFYEWTSRLRSHINPTGTVLLQLENTMQMSKRLLL | ++ (++ = >1.5 to 2.5 relative activity over WT GLA (SEQ ID NO: 5)) | + (+ = 0.5 to 1.5 relative activity over WT GLA (SEQ ID NO: 5)) | + (+ = 0.5 to 1.5 relative activity over WT GLA (SEQ ID NO: 5))
